Experiment: yeast display, Sf9 membrane polyspecificity reagent, FACS + sequencing; frameworks hold sequencing errors
Summary of the method: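 Synthetic nanobody libraries on Saccharomyces cerevisiae BJ5465 were galactose-induced for 36–48 hours, stained 1 hour at 4 °C with 10% biotinylated, detergent-solubilized Sf9 membrane reagent and enriched on streptavidin microbeads. FACS then separated cells into low and high (top ~1%) gates by anti-HA (expression) and streptavidin (reagent binding) fluorescence. Genes were colony-PCR amplified, MiSeq 2 × 250 sequenced and CDR-length filtered. A clone's polyreactivity label is that of its gate of origin.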
For “QVQLVESGGGLVQGGGSLRLSCAASGSIFPGNAMGCYRQAPGKERELLAVIDFSGASTYYADSLKGRFTISRDNAKNTVYLQMKSLKPEATAVYWGQGTQVTVSS”, the “polyreactivity (PSR sort gate)” value was “low polyreactivity”. In the case of “QVQLVESGGGLVQGGGTLRLSCAASGSILSRNTMGWYRQAPGKEREFVADISKGDSTYYADSVKGRFTISRDNAKNTGYLQMNILKPVDTAVYYCAVDSWRRAMWYYGRYGYWGQGTEVTVSS”, the “polyreactivity (PSR sort gate)” value is reported as “low polyreactivity”. In the case of “QVQLVESGGGLVQPGGRLRLSCEASGIFTDYAMGCYRQEPGKERELVAAISWRGGSTYFADSVKGRFTISRDNAKKTVYLQMHSLKPEDTAVFYCAAGVRGGGGRYRYGYWGQGTQVTVSS”, the “polyreactivity (PSR sort gate)” value is reported as “high polyreactivity”. With “QVQLVESGGGLVQPGGSLLLRGAASGSIYYRNVMGWYRPAPGKERELVAAISSGGNTYYADSVKGRFTISRDNAKNTVYLQMNSLKPVDTAVYYCNAEYEGLSFGWYEYWYDYWGQGTQVTVSS” the “polyreactivity (PSR sort gate)” value was “high polyreactivity”. For “QVQLVESGGGLVQPGGSLRLSCAASGFIFYWYAMGWYRQAPGKERELVAAISYDTGSTYYADSVKGRFTISRDNAKITVYFQINSLKPEDTAVYYCAADASWRVYTGYYWGQGTQVTVSS”, the “polyreactivity (PSR sort gate)” value was “high polyreactivity”. With “QVQLVESGGGLVQPGGSLRLSCAASGFTFIRNVMGWYRQAPGKERELVARITYSSGSTYYADSVKGRFTISRDNAKNTVYLQMNSLKPEDTAVYYCAVRLYSYLYNPFNYWGQGTQVTVSS” the “polyreactivity (PSR sort gate)” value was “high polyreactivity”. In the case of “QVQLVESGGGLVQPGGSLRLSCAASGGIFLGNAMGGYRQAPGKERELVAGITWSGGRTYYADSVKGRFTISRDNAKNTVYLQMTSLKPEDTAVYDCNKDTPGTRFYGIYSYDYWGQGTQVTVSS”, the “polyreactivity (PSR sort gate)” value is reported as “low polyreactivity”. In the case of “QVQLVESGGGLVQPGGSLRLSCAASGIIFSFYTIGWDRQEPGKEMELVAAISSSGGRTFYADSVKGRFTISRDNAKNTVYLQMNSLKPEDTAVYYCYAAHTREYYWGQGTQVTLSS”, the “polyreactivity (PSR sort gate)” value is reported as “high polyreactivity”. In the case of “QVQLVESGGGLVQPGGSLRLSCAASGRIFGWYAMGWYRQAPGKERELVAAITWSGTSTYYADSVKGRFTISRDNAKNTVYLQMNSLKPEDTAVYYCAADSLRGSAPTYYSTLEYWGQGTQVTVSS”, the “polyreactivity (PSR sort gate)” value is reported as “low polyreactivity”. In the case of “QVQLVESGGGLVQPGGSLRLSCAASGRISYVYTMGWYRQAPGKERELVAAISKSGGSTSYADSVKGRFTISRDNAKNTVYLQMNSLKPEDTAVYYCAAGRYYYTYAYDHWGQGTQVTLSS”, the “polyreactivity (PSR sort gate)” value is reported as “high polyreactivity”. In the case of “QVQLVESGGGLVQPGGSLRLSCAASGRTFGDYVMGWDREAPGKERELVAVITYRGGSTYYADSVKGRFTISRDNAKNTVHLQMNSLKPEDTAVYYCAAAARAGLKRYYYWGQGTQVTVSS”, the “polyreactivity (PSR sort gate)” value is reported as “high polyreactivity”. With “QVQLVESGGGLVQPGGSLRLSCAASGRTFRTNAMGWSRQEPGKERELVAAISTGGGITNYADSVKGRFTISRDNAKNTVYLQMNCLKPEDTAVYYCAARLAYNAIGYYYWGQGTQVTVSS” the “polyreactivity (PSR sort gate)” value was “low polyreactivity”. With “QVQLVESGGGLVQPGGSLRLSCAASGRTFTGYTMGWYRQAPGKERELVAAIRWSGDRTYYADSVKGRFTISRDNAKNTVYLQMNSLKPEDTAVYYCAAARYVYGKFVGFDYWGQGTQVNVSS” the “polyreactivity (PSR sort gate)” value was “high polyreactivity”. With “QVQLVESGGGLVQPGGSLRLSCAASGRTFVPYAMGWYRQAPGKEREFVAVITWGGGSTYYADSVKGRFTISRDNAKNTVYLQMNSLKPEDTAVYYCDARVYYHYDYWGQGTQVTVSS” the “polyreactivity (PSR sort gate)” value was “high polyreactivity”. For “QVQLVESGGGLVQPGGSLRLSCAASGSIFTPNAMGWYRPAPGKERELVAAISSSSDRTYYADSVKGRFTISRDNAKNTVYLQMNSLKPEDTAVYYCAALSKTRGGYWGHGTQVTVSS”, the “polyreactivity (PSR sort gate)” value was “high polyreactivity”. In the case of “QVQLVESGGGLVQPGGSLRLSCAASGSTFIEYSMGWYRQAPGKERELVATIRGTGSTNYADSVKGRFTISRDNAKNTVYLQMNSLKPEDTAVYYCMKKPDPRWYYWGDYWGQGTQVTVSS”, the “polyreactivity (PSR sort gate)” value is reported as “low polyreactivity”. With “QVQLVESGGGLVQSGGSIRLSCAASGSTFDHYTMGWYRQAPGKERELVAAINRIGDSTYYADSVKGRFTISRDNAKNTVYLQMNSLKPEDTAVYDCAARHVPRFNKYGYWGQGTQVNVSS” the “polyreactivity (PSR sort gate)” value was “high polyreactivity”. In the case of “QVQLVESGGGLVQSGGSLRLSCAASGFIFGEYTMGWNRQAPGKEREFVAAISWSGGSTSYADSVKGRFTISRDNAKNTVYLQMNSLKPEDTAVYYCAARYGSDYDYWGQGTQVTVSS”, the “polyreactivity (PSR sort gate)” value is reported as “low polyreactivity”. In the case of “QVQLVESGGGLVQSGGSLRLSCAASGFIFRWYAMGWYRQAPGKERELVASIDWSGTRTNYADSVKGRFTISRDNAKNTVYLQMNSLKPEDTAVYYCNAVPTSLGETDYDYWGQGTQVTVSS”, the “polyreactivity (PSR sort gate)” value is reported as “low polyreactivity”. For “QVQLVESGGGLVQSGGSLRLSCAASGFTFGGYAMGWYRQAPAKERELVAAISQSGGRTYYADSVKGRFTISRDNAKITVYLQMNSLKPEDTAVYYCAKPSTTYYQRGDYWGQGTQVTVSS”, the “polyreactivity (PSR sort gate)” value was “high polyreactivity”. In the case of “QVQLVESGGGLVQSGGSLRLSCAASGFTFPNNAMGWYRLAPGKERELVAAITWSGGSTYADSVKGRFTISRDNAKNTVYLQMNSLKPEETAVYFCNTRGTYLSKTLPSAYDYWGQGTQVTVSS”, the “polyreactivity (PSR sort gate)” value is reported as “low polyreactivity”. For “QVQLVESGGGLVQSGGSLRLSCAASGFTFSRYAMGWYRQAPGKERELVAAINWSGGSTYYADSVKGRFTISRDNAKNTVYLQMNSLKPEDTAVYSCAKPAGGSGYDSWGQGTQVTVSS”, the “polyreactivity (PSR sort gate)” value was “high polyreactivity”. In the case of “QVQLVESGGGLVQSGGSLRLSCAASGIKFYYNARGWYRPAPGKERELVARITWRAGSTYYADSVKGRFTISRDNAKNTVYLQMNSLKPEDTAVYYCNADHDGLGYYFWGQGTQVTVSS”, the “polyreactivity (PSR sort gate)” value is reported as “high polyreactivity”. With “QVQLVESGGGLVQSGGSLRLSCAASGITTRTYAMGWYRQAPGKDRELVAAISDSGDRTYYADSVKGRFTISRDNAKNTVYLQMNSLKPEDTAVYYCAVDAPGPRGEYWGQGTKVTVSS” the “polyreactivity (PSR sort gate)” value was “low polyreactivity”. With “QVQLVESGGGLVQSGGSLRLSCAASGRIFGKYAMGWYRQAPGKERELVARISFSGGTTYYADSVKGRFTISRDNAKNTVYLQMYSLKPEDTAVYYCSARSVWSQRWAYDSWGQGTQVTVSS” the “polyreactivity (PSR sort gate)” value was “high polyreactivity”. In the case of “QVQLVESGGGLVQSGGSLRLSCAASGRTFYHYAMGWYRQAHGKERELVATITRNGGITYYADSVKGRFTISRDNAKNTVYLQMNSLKPEDTAVYYCIKRWGGPIQFDYWGQGTEVTVSS”, the “polyreactivity (PSR sort gate)” value is reported as “low polyreactivity”. For “QVQLVESGGGLVQSGGSLRLSCAASGRTFYYYTMGWYRPAPGKVRELVAAIYRVGSTYYADSVKGRFTISRDNAKNTVYLQMNSLKPEDTADYYCNAVLRFGWYWVDYWGQGTQVTVSS”, the “polyreactivity (PSR sort gate)” value was “high polyreactivity”. In the case of “QVQLVESGGGLVQSGGSLRLSCAASGSIFSAYAMGWYRQAPGKEREFVAAITRRGGNTYYADSVKGRFTISRDNAQNTVYLQMNSLKPEDSAVYYCAADAGGGPFDYWGQGTQVSVSS”, the “polyreactivity (PSR sort gate)” value is reported as “low polyreactivity”. With “QVQLVESGGGLVQSGGSLRLSCAASGSIFSYYAMGWYRQAPGKEREFVAPHSRSGGSTYYADSVKGRFTISRDNGKNTVYLQMKSLKPEDTAVYYCNAYSYSDAGDDGDYWGQGTQVTVSS” the “polyreactivity (PSR sort gate)” value was “low polyreactivity”. In the case of “QVQLVESGGGLVQSGGSLRLSCAASGSILYGYAMGWYRQAPGKERELVAAIRWTGGSTYYADSVKGRFTISRDNAKNTVYLQMNSLKPEDTAVYFCAAEYNLRTYWGDYWGQGTQVTVSS”, the “polyreactivity (PSR sort gate)” value is reported as “low polyreactivity”. For “QVQLVESGGGLVQSGGSLRLSCAASGSTFDYNAMGWYRQPPGKERELVAAINSGASTYYADSVKGRFTISRDNAKNTVYLLMNSLKPEDTAVYYCAKDYLYIGDYWGQGTQVTVSS”, the “polyreactivity (PSR sort gate)” value was “low polyreactivity”. In the case of “QVQLVESGGGLVQSGGSLRLSCAASGSTFHTYAMGWYRQAPGKERELFASIRTSGGSTNADSVKGRFTISRDNAKNTVYLQMNSLNPEDTAVYYCAAYYFYGLYDAYYYWGQGTEVTVSS”, the “polyreactivity (PSR sort gate)” value is reported as “low polyreactivity”.
